Assay in all cases: SPR (BIACORE 3000), hGLP-1R/GST amine-coupled to CM5 chip, 1:1 Langmuir fit
Test [1] concerns the target desamino-histidyl-exendin-4 (DA-exendin-4). Here is the method:
(§1) The binding activity of the GLP-1 receptor and the insulinotropic peptide derivative with a modified N-terminal charge were measured using a surface plasmon resonance (SPR) apparatus (BIACORE 3000, GE Healthcare).
(§2) The GLP-1 receptor was expressed from CHO-DG44 cells in hGLP-1R/GST form. The expressed hGLP-1R/GST was immobilized to a CM5 chip by amine coupling. To the hGLP-1R/GST-immobilized CM5 chip, the insulinotropic peptide derivatives with a modified N-terminal charge were diluted by concentration and then added to determine the binding activity with the GLP-1 receptor.

Test [2] has as its target DA-exendin-4-propyl-amide. The protocol: as §1, §2
Test [3] concerns the target Native exendin-4 (exenatide: BYETTA). Here is the method:
as §1, §2

Test [4] concerns the target beta-hydroxy imidazopropionyl-exendin-4 (HY-exendin-4). Here is the method:
as §1, §2

The target in test [5] is imidazoacetyl-exendin-4 (CA-exendin-4). Here is the method: as §1, §2

B1: hGLP-1R/GST (receptor)
chain: RPQGATVSLWETVQKWREYRRQCQRSLTEDPPPATDLFCNRTFDEYACWPDGEPGSFVNVSCPWYLPWASSVPQGHVYRFCTAEGLWLQKDNSSLPWRDLSECEESKRGERSSPEEQLLFLY
notes: Expressed from CHO-DG44 cells and immobilized on a CM5 chip by amine coupling; also called GLP-1 receptor; GLP-1 receptor in hGLP-1R/GST form; not shown: GST (glutathione S-transferase) fusion partner
The Kd is the free concentration of one partner at which half of the binding sites on the other are occupied at equilibrium, for simple one-to-one binding. For orientation: koff means the rate constant with which the complex falls apart. What is called kon is the rate constant with which the complex forms. Low values mean slower complex formation, high ones faster complex formation. For the molecule B1, the Kd in test [1] is 32.2 nM; in test [2] it was 32.6 nM; in test [3], 1.4 nM; in test [4] it was 42.7 nM; in test [5], 26.3 nM. Also, the koff turned out to be 0.00365 s⁻¹ in test [1]; 0.00335 s⁻¹ in test [2]; 0.000526 s⁻¹ in test [3]; 0.00383 s⁻¹ in test [4]; 0.00315 s⁻¹ in test [5]. In addition, the kon worked out at 113000 M⁻¹ s⁻¹ in test [1]; 104000 M⁻¹ s⁻¹ in test [2]; 370000 M⁻¹ s⁻¹ in test [3]; 90000 M⁻¹ s⁻¹ in test [4]; 120000 M⁻¹ s⁻¹ in test [5].

Source of the values: patent publication US20170226175A1 (HANMI PHARM, published 2017).
